This note sets out measurements from patent US20140271457A1 (AbbVie / Abbott, published 2014).

This assay has as its target Recombinant Human TNF-α/TNFSF1A (human, UniProt P01375 77-233). The experiment in a line: cell-based or functional assay.

Chain of Recombinant Human TNF-α/TNFSF1A (P01375 77-233 limits assumed): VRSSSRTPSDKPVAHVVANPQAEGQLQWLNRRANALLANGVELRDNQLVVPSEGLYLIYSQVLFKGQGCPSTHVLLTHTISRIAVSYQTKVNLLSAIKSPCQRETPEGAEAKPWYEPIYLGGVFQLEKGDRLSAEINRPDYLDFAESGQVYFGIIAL

B1: DVD3224 (bispecific antibody, IgG1)
VH: EVQLVQSGAEVKKPGASVKVSCKASGYTFANYGIIWVRQAPGQGLEWMGWINTYTGKPTYAQKFQGRVTMTTDTSTSTAYMELSSLRSEDTAVYYCARKLFTTMDVTDNAMDYWGQGTTVTVSSASTKGPEVQLVESGGGLVQPGGSLRLSCAASGFSFSKYWLGWVRQAPGKGLEWVSDIYPGYDYTHYNEKFKDRFTISADTSKNTAYLQMNSLRAEDTAVYYCARSDGSSTYWGQGTLVTVSS
VL: DIQMTQSPSSLSASVGDRVTITCRASQDISQYLNWYQQKPGKAPKLLIYYTSRLQSGVPSRFSGSGSGTDFTLTISSLQPEDFATYFCQQGNTWPPTFGQGTKLEIKRTVAAPDIQMTQSPSSLSASVGDRVTITCTSSQNIVHSNGNTYLEWYQQKPGKAPKLLIYKVSNRFSGVPSRFSGSGSGTDFTLTISSLQPEDFATYYCFQVSHVPYTFGQGTKVEIKR
Take B1: the “N-Terminal VD huTNFα Neutralization Assay IC50” value was found to be 4 pM.

B2: DVD3226 (bispecific antibody, IgG1)
VH: B1 VH
VL: DIQMTQSPSSLSASVGDRVTITCRASQDISQYLNWYQQKPGKAPKLLIYYTSRLQSGVPSRFSGSGSGTDFTLTISSLQPEDFATYFCQQGNTWPPTFGQGTKLEIKRTVAAPSVFIFPPDIQMTQSPSSLSASVGDRVTITCTSSQNIVHSNGNTYLEWYQQKPGKAPKLLIYKVSNRFSGVPSRFSGSGSGTDFTLTISSLQPEDFATYYCFQVSHVPYTFGQGTKVEIKR
With B2, the “N-Terminal VD huTNFα Neutralization Assay IC50” value came to 11 pM.

B3: DVD3227 (bispecific antibody, IgG1)
VH: EVQLVQSGAEVKKPGASVKVSCKASGYTFANYGIIWVRQAPGQGLEWMGWINTYTGKPTYAQKFQGRVTMTTDTSTSTAYMELSSLRSEDTAVYYCARKLFTTMDVTDNAMDYWGQGTTVTVSSASTKGPSVFPLAPEVQLVESGGGLVQPGGSLRLSCAASGFSFSKYWLGWVRQAPGKGLEWVSDIYPGYDYTHYNEKFKDRFTISADTSKNTAYLQMNSLRAEDTAVYYCARSDGSSTYWGQGTLVTVSS
VL: B1 VL
For B3, the “N-Terminal VD huTNFα Neutralization Assay IC50” value stood at 2 pM.

B4: DVD3223 (bispecific antibody, IgG1)
VH: EVQLVQSGAEVKKPGASVKVSCKASGYTFANYGIIWVRQAPGQGLEWMGWINTYTGKPTYAQKFQGRVTMTTDTSTSTAYMELSSLRSEDTAVYYCARKLFTTMDVTDNAMDYWGQGTTVTVSSGGGGSGGGGSEVQLVESGGGLVQPGGSLRLSCAASGFSFSKYWLGWVRQAPGKGLEWVSDIYPGYDYTHYNEKFKDRFTISADTSKNTAYLQMNSLRAEDTAVYYCARSDGSSTYWGQGTLVTVSS
VL: DIQMTQSPSSLSASVGDRVTITCRASQDISQYLNWYQQKPGKAPKLLIYYTSRLQSGVPSRFSGSGSGTDFTLTISSLQPEDFATYFCQQGNTWPPTFGQGTKLEIKRGGSGGGGSGDIQMTQSPSSLSASVGDRVTITCTSSQNIVHSNGNTYLEWYQQKPGKAPKLLIYKVSNRFSGVPSRFSGSGSGTDFTLTISSLQPEDFATYYCFQVSHVPYTFGQGTKVEIKR
B4: the “N-Terminal VD huTNFα Neutralization Assay IC50” value was found to be 2 pM.

B5: DVD3222 (bispecific antibody, IgG1)
VH: EVQLVESGGGLVQPGGSLRLSCAASGFSFSKYWLGWVRQAPGKGLEWVSDIYPGYDYTHYNEKFKDRFTISADTSKNTAYLQMNSLRAEDTAVYYCARSDGSSTYWGQGTLVTVSSASTKGPSVFPLAPEVQLVESGGGLVQPGGSLRLSCAASGFTFSNYGVEWVRQAPGKGLEWVSGIWADGSTHYADTVKSRFTISRDNSKNTLYLQMNSLRAEDTAVYYCAREWQHGPVAYWGQGTLVTVSS
VL: DIQMTQSPSSLSASVGDRVTITCTSSQNIVHSNGNTYLEWYQQKPGKAPKLLIYKVSNRFSGVPSRFSGSGSGTDFTLTISSLQPEDFATYYCFQVSHVPYTFGQGTKVEIKRTVAAPDIQMTQSPSSLSASVGDRVTITCKASQLVSSAVAWYQQKPGKAPKLLIYWASTLHTGVPSRFSGSGSGTDFTLTISSLQPEDFATYYCQQHYRTPFTFGQGTKLEIKR
Take B5: the “C-Terminal VD huTNFα Neutralization Assay IC50” value is 243 pM.
